Measured values taken from patent US20230331850A1.
pKd: −log10 of the molar value.

What was measured:
Experiment in all cases: Bio-Layer Interferometry (Precision Antibody)
[1] = biological target: p63:IA^g7 (recombinant peptide:MHCII monomer / tetramer) (mouse)
[2] = biological target: 2W:IA^b (recombinant peptide:MHCII monomer) (mouse) (UniProt P14434)
Eα52-68:IA^b (mouse) = Eα52-68:IA^b (mouse) (UniProt P14434)

| pKd [2] | Substance | also measured |
| --- | --- | --- |
|  | 10-2.16 MAb (anti-IA^g7) (antibody) | pKd [1]: 8.54 |
| 8.15 | AF6-120.1 (antibody) |  |
| 8.72 | Y3P (antibody) |  |
|  | Y-Ae (anti-Eα:IA^b) (antibody) | pKd (Eα52-68:IA^b (mouse)): 9.32 |
